Patent US10273291

Molecular target: ΔRSC3
Assay: ELISA, antigen coated, IgG1

Substance	fold less binding than to RSC3 [fold]
VRC-PG04 (antibody)	100
VRC-PG04b (antibody)	100
